Measured values published in article PMC4705477, “Biochemical Characterization of Nonamer Binding Domain of RAG1 Reveals its Thymine Preference with Respect to Length and Position”.

Target: T1, NBD (nonamer binding domain of RAG1) (mouse, UniProt P15919 384-461)
T1 sequence: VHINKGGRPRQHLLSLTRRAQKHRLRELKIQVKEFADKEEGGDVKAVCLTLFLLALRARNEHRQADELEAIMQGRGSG
Experiment: EMSA; 5 mM Ca2+; printed as 'binding constant'; NBD EMSA: 10 mM Tris-HCl pH 7.5, 33 mM KCl, 5 mM CaCl2, 2 mM DTT, 0.1 mg/ml BSA, 6% glycerol, 15 min 30 C; cRAG EMSA: 22.5 mM MOPS-KOH pH 7.0, 20% DMSO, 2.2 mM
Conditions: protein: recombinant; tags: N-terminal His6 (pET28a); label: 5' 32P on AKN3; 5' overhang 1 nt at both ends

B1: 23RSS (II, AKN3/AKN4) (dsDNA)
DNA 1: GATCAGCTGACAGTAGCACAGTGGTAGTACTCCACTCTCTGGCTGTACAAAAACCCTGCT
DNA 2: TAGCAGGGTTTTTGTACAGCCAGAGAGTGGAGTACTACCACTGTGCTACTGTCAGCTGAT
B1 showed a Kd of 13.9 ± 3.3 µM.
